The results in this text go back to FireProtDB (doi:10.1021/bi027202n).

For the data set the following is noted: Geobacillus stearothermophilus, pH 5.4, CD, sodium phosphate 10 mM, reversible: yes(>90%), whole UniProt chain shown; for denaturant m value / denaturant midpoint (higher = more stable) / unfolding free energy: 25 °C, Urea.

Values joined by “and” are separate entries in the source; they are usually repeats but may differ in a detail not shown here. Identical values can stand only once.

A word on the Tm: it is the temperature at the midpoint of the melting transition.

B1: Large ribosomal subunit protein bL9 wild type, P02417 (protein)
chain: MKVIFLKDVKGKGKKGEIKNVADGYANNFLFKQGLAIEATPANLKALEAQKQKEQRQAAEELANAKKLKEQLEKLTVTIPAKAGEGGRLFGSITSKQIAESLQAQHGLKLDKRKIELADAIRALGYTNVPVKLHPEVTATLKVHVTEQK
For the protein B1, where the note is “sodium chloride 100 mM”, the denaturant m value is 0.72 kcal/mol/M and 0.64 kcal/mol/M; the “denaturant midpoint (higher = more stable)” value was 6.18 M and 3.16 M; the unfolding free energy is 4.45 kcal/mol and 2.02 kcal/mol. Under “sodium chloride 750 mM”, the denaturant m value was 0.62 kcal/mol/M and 0.66 kcal/mol/M; the “denaturant midpoint (higher = more stable)” value was 7.76 M and 3.64 M; the unfolding free energy is 4.81 kcal/mol and 2.4 kcal/mol. Further, the Tm (Thermal, sodium chloride 100 mM) came out at 56 °C.
